Results: patent US20260199504A1 (JIANGSU HENGRUI PHARMACEUTICALS, published 2026)
Each block holds one binder with its values, some of them ahead of it.

Assays:
[1] = molecular target: T1, human Nectin-4 on Nectin4-CHOK1 cells (CHO-K1 cell strain highly expressing Nectin-4) (human, UniProt Q96NY8 32-510); assay: cell-based or functional assay
T1 sequence: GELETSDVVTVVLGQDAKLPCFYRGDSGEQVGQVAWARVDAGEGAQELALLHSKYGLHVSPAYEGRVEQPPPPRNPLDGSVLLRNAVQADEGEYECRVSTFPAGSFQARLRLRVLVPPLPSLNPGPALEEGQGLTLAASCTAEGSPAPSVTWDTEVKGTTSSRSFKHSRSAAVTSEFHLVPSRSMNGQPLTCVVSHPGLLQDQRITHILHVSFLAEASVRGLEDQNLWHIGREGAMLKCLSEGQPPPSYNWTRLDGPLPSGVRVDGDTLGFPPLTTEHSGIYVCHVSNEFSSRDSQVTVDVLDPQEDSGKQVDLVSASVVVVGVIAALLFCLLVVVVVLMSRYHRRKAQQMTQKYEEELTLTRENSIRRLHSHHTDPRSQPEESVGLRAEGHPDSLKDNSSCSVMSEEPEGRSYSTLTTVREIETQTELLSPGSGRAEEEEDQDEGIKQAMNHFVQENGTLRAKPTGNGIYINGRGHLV

[2] = molecular target: T2, Nectin-4 expressed on T47D and MDA-MB-468 human breast cancer cells (human, UniProt Q96NY8 32-510); assay: flow cytometry on T47D cells
T2 construct: whole, on cells; Nectin-4 native to the cell lines; also called Nectin-4-expressing cells
T2 sequence (looked up): T1 sequence
Description: (§1) After centrifugation and removal of the supernatant, the test antibody that was diluted with the FACS buffer to different concentrations was added at 50 μL/well. The plate was incubated in the dark in a 4° C. refrigerator for 1 h. The plate was washed 3 times with FACS buffer by centrifugation at 500 g, and Alexa Fluor 488 Goat anti-Human IgG (H+L) (invitrogen, A-11013) was then added in a working concentration. The plate was incubated in the dark in a 4° C. refrigerator for 40 min. The plate was washed 3 times with FACS buffer by centrifugation at 500 g and tested on a BD FACSCantoII flow cytometer for geometric mean fluorescence intensity, and the EC₅₀ values for the binding of the antibodies to Nectin-4-expressing cells were calculated.

[3] = molecular target: T2, Nectin-4 expressed on T47D and …; assay: flow cytometry on MDA-MB-468 cells
Description: as §1

[4] = molecular target: T1, human Nectin-4 on Nectin4-CHOK1 cells …; assay: flow cytometry on Nectin4-CHOK1 cells
Description: as §1

[5] = molecular target: T3, human Nectin-4 His (Cat. #19771-H08H, Sino Biological) (human, UniProt Q96NY8 32-349); assay: SPR, Biacore T200; antibody captured on Protein A chip, human Nectin-4 His as analyte; 1:1 Langmuir model
T3 construct: Bought soluble antigen; the construct is probably only a part of it; also called human Nectin-4 His antigen; not shown: His tag
T3 sequence: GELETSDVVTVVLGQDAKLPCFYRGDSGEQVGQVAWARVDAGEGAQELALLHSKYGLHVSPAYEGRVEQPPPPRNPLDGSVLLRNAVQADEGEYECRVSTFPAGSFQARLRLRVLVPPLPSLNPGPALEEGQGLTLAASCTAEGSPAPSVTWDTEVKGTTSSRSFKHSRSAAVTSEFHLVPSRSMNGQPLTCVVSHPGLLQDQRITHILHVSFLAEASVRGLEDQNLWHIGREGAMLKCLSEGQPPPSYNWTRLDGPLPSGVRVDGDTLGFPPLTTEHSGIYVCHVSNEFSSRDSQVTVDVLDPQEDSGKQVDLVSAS
Description: The anti-Nectin-4 antibody was analyzed by Biacore T200 (GE) for characteristic affinity and binding kinetics. A Protein A biosensor chip (Cat. #29127556, GE) was used to affinity-capture IgG antibodies, and then the human Nectin-4 His (Cat. #19771-H08H, Sino Biological) antigen that was diluted with HBS-EP buffer (pH 7.4) (Cat. #BR-1001-88, GE) to a series of concentrations was allowed to flow over the surface of the chip. The antigen-antibody binding kinetics was tracked for 3 min and the dissociation kinetics was tracked for 10 min. Reaction signals were detected in real time using a Biacore T200 instrument to obtain binding and dissociation curves. After dissociation was complete in each cycle, the biosensor chip was washed with 10 mM Gly-HCl pH 1.5 (Cat. #BR-1003-54, GE) for regeneration. The data obtained were analyzed with BIAevaluation software of GE using a 1:1 (Langmuir) binding model.

IC50 (nM) (DT3C antibody endocytosis assay, Nectin4-CHOK1 cells) [1]: 0.43 nM
EC50 [2]: 0.07 nM
EC50 [3]: 0.06 nM
EC50 [4]: 0.78 nM
Kd [5]: 5.15 nM
koff [5]: 0.00189 s⁻¹
kon [5]: 367000 M⁻¹ s⁻¹
B1: NEC49 (fully human-derived anti-Nectin-4 antibody) (antibody, V domains shown)
VH: EVQLLESGGGLVQPGGSLRLSCAASGFTFSSYAMSWVRQAPGKGLEWVSAIYSGGSTYYADSVKGRFTISRDNSKNTLYLQMNSLRAEDTAVYYCTRHGGDSGSWSYYYYGMDVWGQGTTVTVSS
VL: not shown
notes: also called antibody NEC49

IC50 (nM) (DT3C antibody endocytosis assay, Nectin4-CHOK1 cells) [1]: 0.5 nM
EC50 [2]: 0.26 nM
EC50 [3]: 0.23 nM
EC50 [4]: 0.94 nM
Kd [5]: 9.33 nM
koff [5]: 0.00661 s⁻¹
kon [5]: 709000 M⁻¹ s⁻¹
B2: EV201 (positive control antibody; antibody of enfortumab vedotin) (antibody, human IgG1, kappa, V domains shown)
VH: EVQLVESGGGLVQPGGSLRLSCAASGFTFSSYNMNWVRQAPGKGLEWVSYISSSSSTIYYADSVKGRFTISRDNAKNSLSLQMNSLRDEDTAVYYCARAYYYGMDVWGQGTTVTVSS
VL: DIQMTQSPSSVSASVGDRVTITCRASQGISGWLAWYQQKPGKAPKFLIYAASTLQSGVPSRFSGSGSGTDFTLTISSLQPEDFATYYCQQANSFPPTFGGGTKVEIKR
notes: also called control antibody EV201; control molecule
